Results taken from patent US7842469B2, “Bioluminescence resonance energy transfer (BRET) systems and methods of use thereof” (Stanford University, priority 2005, dated 2010).
Where two headings read alike, the source gives them in different places.

Assays:
[1] = Luciferase activity of purified RLuc mutants (light output integrated over 10 s, luminometer); type: biochemical; details: 10 s integration
Outline: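 Purified RLuc mutant sample, diluted in EB with 1% HSA, added to room-temperature 100 mM sodium phosphate (pH 7), then 1 μl of 0.5 μg/μl coelenterazine or analog mixed in manually. Light read for 10 s starting ~4 s after luciferin addition. Luminometer calibrated to photons/s against luminol standard in DMSO.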

[2] = Serum stability in mouse serum at 37° C.; type: in vitro ADME; details: mouse serum, 37° C., mono-exponential fit
Outline: (§1)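 Luciferase diluted into mouse or rat serum at 37° C; aliquots withdrawn over time for activity, half-life from mono-exponential decay fit. Emission spectra recorded at ambient temperature with a grating spectrometer and cooled CCD detector.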

[3] = Serum stability in rat serum at 37° C.; type: in vitro ADME; details: mono-exponential fit
Outline: as §1

[4] = Bioluminescence emission spectra; type: physicochemical; details: emission spectrum with native coelenterazine
Outline: as §1

[5] = Quantum yield measurements; type: biochemical
Experimental: For quantum yield measurements, separate 1 μl drops of protein (about 2 pm) and substrate (0.2 pm) were placed in a tube, 100 μl of 100 mM sodium phosphate buffer (pH 7) was injected by the luminometer to mix, and the total light output was integrated (generally 5-10 min). For coelenterazine-n, the protein amount was increased 10 fold and the acquisition time lengthened to insure the reaction approached completion.

[6] = Kinetics (Michaelis-Menten fit to initial reaction velocity); type: biochemical
Experimental: Kinetics: Kinetics were assessed by injecting 100 μl of 100 mM sodium phosphate buffer (pH 7) containing coelenterazine onto 1 μl of protein (diluted appropriately in EB containing 1% HSA), and recording the light output for 20 min. The final coelenterazine concentrations tested were 118, 24, 4.7, 0.94, 0.19, and 0.038 μM. The final Luciferase concentrations were in the range of 1-7 pM. Coelenterazine absorbance was corrected for, although this was only significant for the highest concentration (10% attenuation). The values were converted from photons/s to molecules/s using the data from the quantum yield measurements, converted from flux units to mass units via integration, and processed using the kinetic curve fitting program Dynafit.

293T cells = assay: Mammalian expression, transient transfection, light output in 293T cells; type: cell-based, human; details: pcDNA 3.1 CMV plasmid, 24 hours post transfection, coelenterazine
Excerpt: (§2) Mammalian Expression: In order to construct mammalian expression vectors, bacterial expression vectors containing the desired mutations were used as templates for PCR, with primers designed such that the N-terminal pelB sequence would be replaced by a methionine codon and a C-terminal stop codon would replace the Myc epitope and 6×His tag. The primers also contained appropriate NheI and HindIII restriction sites to allow insertion of the product into the pcDNA 3.1 plasmid (Invitrogen). The resultant plasmids were transiently transfected using SuperFect (Qiagen) into 293T or Chinese Hamster Ovarian (CHO, ATCC# CCL-61) cells growing in 24 well plates following the manufacturer's protocol. Twenty-four hours post transfection, 0.5 μg/well of coelenterazine was added, and the plates were imaged in an IVIS 50 imaging system (Xenogen, Alameda, Calif.).

CHO cells = assay: Mammalian expression, transient transfection, light output in CHO cells; type: cell-based, Chinese Hamster; details: pcDNA 3.1 CMV plasmid, 24 hours post transfection, coelenterazine
Excerpt: as §2

[7] = tested on: 293T cells implanted in nude mice; assay: In vivo animal imaging of BRET^2 expression with cooled CCD camera; parameters: species or system mouse; details: 3×10^6 transfected 293T cells s.c. in nude mice, DBC i.v.
Experimental: In Vivo Animal Imaging of BRET^2 Expression by Using a Cooled CCD Camera: 293T cells transiently transfected with either phRluc or pBRET^2 were harvested 24 hours post-transfection and resuspended in PBS. An aliquot of 3×10^6 cells each was injected s.c. in a set of 3 anesthetized (ketamine:xylazine 4:1) nude mice. One hour after cell injection, 20 μg/mouse of DBC diluted in D-PBS (100 μl total volume) was injected via tail vein (i.v.) and imaged immediately using the CCD camera. For the deep tissue signal detection experiment, 3×10^6 cells each were injected intravenously in another set of anesthetized nude mice, and a scan was performed half an hour later after 100 μg/mouse of DBC injection. For protein-protein interaction experiments, 293T cells were transiently transfected with either pBRET^2, pFKBP12-hRluc alone or co-transfected with pFKBP12-hRluc and pGFP^2-FRB in 1:1 DNA ratio. The cells were harvested 24 hours post-transfection and re-suspended in PBS after counting the cell number. An aliquot of 5×10^6 cells each was injected s.c. in a set of 6 nude mice. Three of these mice were kept aside, while the other 3 mice received single dose of 5 mg/kg rapamycin intra-peritonially (i.p.). After 7 hours, mice were injected intravenously with 25 μg of DBC/mouse and imaged using specified filters. […]

[8] = RLuc purified directly from Renilla reniformis; cited from earlier work
[9] = cited from earlier work
[10] = recombinant RLuc, hamster blood at 37° C.; cited from earlier work
[11] = coelenterazine 0.038 to 24 μM, formal standard error of fit

Activity (photons/s/mole enzyme) bc ([1]; benzyl-coelenterazine, absolute units): 5.4 × 10^22 photons/s/mole enzyme
Activity (photons/s/mole enzyme) bdc ([1]; bisdeoxycoelenterazine, absolute units (overestimation per footnote)): 5.8 × 10^19 photons/s/mole enzyme
Activity (photons/s/mole enzyme) cp ([1]; coelenterazine-cp, absolute units): 1.7 × 10^22 photons/s/mole enzyme
Activity (photons/s/mole enzyme) n ([1]; coelenterazine-n, absolute units): 8.3 × 10^21 photons/s/mole enzyme
B1: Native RLuc: Luciferase from Renilla reniformis, native enzyme (SEQ ID NO: 1) (protein)
chain: MASKVYDPEQRKRMITGPQWWARCKQMNVLDSFINYYDSEKHAENAVIFLHGNAASSYLWRHVVPHIEPVARCIIPDLIGMGKSGKSGNGSYRLLDHYKYLTAWFELLNLPKKIIFVGHDWGACLAFHYSYEHQDKIKAIVHAESVVDVIESWDEWPDIEEDIALIKSEEGEKMVLENNFFVETMLPSKIMRKLEPEEFAAYLEPFKEKGEVRRPTLSWPREIPLVKGGKPDVVQIVRNYNAYLRASDDLPKMFIESDPGFFSNAIVEGAKKFPNTEFVKVKGLHFSQEDAPDEMGKYIKSFVERVLKNEQ
modifications: Chemically synthesized Renilla Luciferase
Activity (photons/s/mole enzyme) native ([1]; native coelenterazine, absolute units): (3.2 ± 0.3) × 10^22 photons/s/mole enzyme
Serum τ1/2 (h) mouse [2]: 0.9 h
Serum τ1/2 (h) rat [3]: 0.4 h
Wavelength (nm) mean [4]: 497 nm
Wavelength (nm) peak [4]: 482 nm
Quantum Yield (%) bc ([5]; benzyl-coelenterazine): 3.2 ± 0.04%
Quantum Yield (%) bdc ([5]; bisdeoxycoelenterazine): (6.1 ± 0.9) × 10^−3%
Quantum Yield (%) cp ([5]; coelenterazine-cp): 4.7 ± 0.03%
Quantum Yield (%) n ([5]; coelenterazine-n): 6.1 ± 0.2%
Quantum Yield (%) native ([5]; native coelenterazine): 5.3 ± 0.1%
Km [6, 11]: 2.9 ± 1 µM
kcat [6, 11]: 3.9 ± 0.4 s⁻¹
Peak light flux ([6]; recombinant RLuc, 24 μM coelenterazine): 1.2±0.2×10^23 photons/s/mole enzyme
Light output after transient transfection, 293T (293T cells): 22.5 ± 0.7 photons × 10^6/s/cm^2/steradian
Light output after transient transfection, CHO (CHO cells): 11.7 ± 1.2 photons × 10^6/s/cm^2/steradian
average radiance on GFP^2 filter, subcutaneous implants [7]: 0.342±0.031×10^3 photons/sec/cm^2/steradian
previously published emission peak [8]: 482 nm
reported peak light flux ([9]; RLuc purified directly from Renilla reniformis): 6.5×10^22 photons/s/mole enzyme
Km ([9]; in the presence of benzyl-coelenterazine, read-out: previously published Km): 2 µM
reported peak light flux ([9]; recombinant RLuc): 9×10^22 photons/s/mole enzyme
half-life in hamster blood [10]: 36 min
